Measurements reported in the nanobody polyreactivity screen of Harvey et al. (2022).

Experiment: yeast display, Sf9 membrane polyspecificity reagent, FACS + sequencing; frameworks hold sequencing errors
In short: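 Sorting gates, low and high (top ~1%), were placed on anti-HA fluorescence to track expression and on streptavidin fluorescence to track reagent binding. A clone's polyreactivity label is taken from the gate it came out of. The reagent was 10% biotinylated, detergent-solubilized Sf9 membrane, applied for 1 hour at 4 °C to galactose-induced yeast display cells.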
For “QVQLVESGGGLVQAGGSLRLSCPASGSISYFNAMGGYRQAPGKERELVAAITSCGSTYYADSVKGRFTISRDNAKNSVYLQMNSLKPEDTAVYYCAADDSWFYYGYGYWGQGTQVTVSS”, the “polyreactivity (PSR sort gate)” value was “low polyreactivity”. In the case of “QVQLVESGGGLVQAGGSLRLSCPASGSNLSRYAMGWYRQAPGKERELVAGITWRGGSTYYADSVKGRFTISRDNAKNTVYLQMNSLKPEDTAVYYCARRYGGYKWVRAYYYWGQGTQVTLSS”, the “polyreactivity (PSR sort gate)” value was “high polyreactivity”. In the case of “QVQLVESGGGLVQAGGSLRLSCPSSGIIFYYYAMGWYRQAPGKERELVAAINFSVGGTYYADSVKGRFTISRDNAKNTVYLQMNSEKPEDTEVYYCAKDIVIPATYVEYDYWGQGTQVTVSS”, the “polyreactivity (PSR sort gate)” value was “low polyreactivity”. In the case of “QVQLVESGGGLVQAGGSLRLSCSASGFIFDVYAMGWYRPAPGKERELVAAISRSGGSTYYADSVKGRFTISRDNAKNTVYLQMNSLKPEDTAVYYCATVLLNNVDYDYWGQGTQVTVSS”, the “polyreactivity (PSR sort gate)” value was “low polyreactivity”. With “QVQLVESGGGLVQAGGSLRLSCSASGFIFITVNAMGWYRQAPGKEREFVAAITRSGTGTYYADSVKGRFTISRDHAKNTVYLQMNSLKPEDTAVYYCAADATSTGAYDYWGQGTQVTVSS” the “polyreactivity (PSR sort gate)” value was “low polyreactivity”. For “QVQLVESGGGLVQAGGSLRLSCSASGFIFVDYAMGWYRQSPGKERELVAAISRSGGSTYYADSVKGRFTISRDNAKNTVYLQMNSLKPEDTAVYYCAAKYPFYAKNGYWGQGTQVTVSS”, the “polyreactivity (PSR sort gate)” value was “high polyreactivity”. In the case of “QVQLVESGGGLVQAGGSLRLSCSASGFILLAYAMGWYRQAHGKERELVAAITSGGSTHYADSVKGRFTISRDNAKNTVYLQMNSLKPEDTAVYYCANDTVFRYSGNTYGYWGQGTQVTVSS”, the “polyreactivity (PSR sort gate)” value was “low polyreactivity”. In the case of “QVQLVESGGGLVQAGGSLRLSCSASGFTFDSYAMGWYRQAPGKERELVAAITSDGSTYYADSVKGRFTISRDNAKNTVYLQMNSLKPEDTAVYYCAADGRYFRAVFRLYDYWGQGTQVTVSS”, the “polyreactivity (PSR sort gate)” value was “low polyreactivity”. With “QVQLVESGGGLVQAGGSLRLSCSASGFTYDYYAMGWYRQAPGKERELVATISVSAVSTSYADSVKGRFTISRDNAKNTVYLQMNSLKPEDTAVYYCAASRGPYYYHYSGSLKSFDYWGQGTQVTVSS” the “polyreactivity (PSR sort gate)” value was “low polyreactivity”. In the case of “QVQLVESGGGLVQAGGSLRLSCSASGGIFWVYAMGWYRQAPGKERELVAAISNSDTSTSYADSVKGRFTISRDNAKNTVYLQMNSLKPEDTAVYYCNADSPSLSGDYWGQGTQVTVSS”, the “polyreactivity (PSR sort gate)” value was “low polyreactivity”. For “QVQLVESGGGLVQAGGSLRLSCSASGIIFDVNALGWYRQSPGKERELVADITYSVGSTSYADSVKGRFTISRDNAKNTVYLQMNSLKPEDTAVYYCAAVYSHSGGEGIKYDYWGQGTQVTVSS”, the “polyreactivity (PSR sort gate)” value was “low polyreactivity”. With “QVQLVESGGGLVQAGGSLRLSCSASGIIFRGYAMGWYRQAPRKERELVAGITSGGDTNYADSVKGRFTISRDNAKNTVYLQMNSLKPEETAVYYCNVALQAKGMGYWGQGTQVTVSS” the “polyreactivity (PSR sort gate)” value was “low polyreactivity”. In the case of “QVQLVESGGGLVQAGGSLRLSCSASGIIFSEYAMVWYRQAPGKERELVAAISKSSGSTRYADSVKGRFTISRDNAKNTVYLQMNSLKPEVTAVYYCAAVYRGVVVYGYWGQGTQVTVSS”, the “polyreactivity (PSR sort gate)” value was “high polyreactivity”. With “QVQLVESGGGLVQAGGSLRLSCSASGITSKNYAMGCYRQAPGKERELVAVISGRGGSTYYADSVKGRFTISRDNAKNTVYLQMNSLKPVDTAVYYCAAYGNQRRGAYPYKYDYWGQGTQVTVSS” the “polyreactivity (PSR sort gate)” value was “high polyreactivity”. In the case of “QVQLVESGGGLVQAGGSLRLSCSASGRFYVINYMGRYRQAPGKERELVAANTWGSSTYADSEKGRFTISRDNAKITVYFQMNSLKQEDTAVYYCSRDVYPSTWEYDYWGQGTQVTVSS”, the “polyreactivity (PSR sort gate)” value was “low polyreactivity”. With “QVQLVESGGGLVQAGGSLRLSCSASGRIFQYYAMGWYIKAPGKERELVAAISGRGTSTYYADSVKGRFTISRDNAKNTVYLEMNSLKQEDTAVYYCNADINYKSYFIHTFTIIPYGYWGQGTQVTVSS” the “polyreactivity (PSR sort gate)” value was “low polyreactivity”. In the case of “QVQLVESGGGLVQAGGSLRLSCSASGRIFWDYAMGRYRQAPGKERELVASSSTDGSTYYADSVKGRFTISRDNANNTFYLQMNSLKPEDTAVYYCAARGYRGRMGYWGQGTQVTVSS”, the “polyreactivity (PSR sort gate)” value was “low polyreactivity”. With “QVQLVESGGGLVQAGGSLRLSCSASGRISNAMGWYRQAPGKERELVATINSGASTNYADSVKGRFTISRDNAKNTVYLQMNSLKPEDTAVYYCNVAYVYGSFRRRPMGYLGQGTQVTVSS” the “polyreactivity (PSR sort gate)” value was “high polyreactivity”. In the case of “QVQLVESGGGLVQAGGSLRLSCSASGRTFGYNAMGWYRQAPGKEWELVAAIRTIGDSTYYADSVKGRFTISRDNAKNTVYLQMNSLKPEDTAVYYCAARNLRSRYDYWGQGTQVTVSS”, the “polyreactivity (PSR sort gate)” value was “high polyreactivity”. In the case of “QVQLVESGGGLVQAGGSLRLSCSASGRTFSRYAMGWYSQAPGTERELVATISRRGGSTYYADSVKGRFTISRDNAKNTVYLQMNSLKPEDTAVYYCAARLYTQYYYWGQGTQVTVSS”, the “polyreactivity (PSR sort gate)” value was “high polyreactivity”. In the case of “QVQLVESGGGLVQAGGSLRLSCSASGSIFDAYAMGWYRQAPGKEREMVAAISKGGTRTYYADSVKGRFTISRDNAKNTVYLQMNSLIPEDTAFYYCNSYYRREPDDGDYDYWGQGTQVTVSS”, the “polyreactivity (PSR sort gate)” value was “high polyreactivity”. In the case of “QVQLVESGGGLVQAGGSLRLSCSASGSIFPHYAMGWYRQAPGKERELVAAISRSGTSTYYADSVKGRFTISRDNAKNTVYLQMNSLKPEDTAVYYCNAYQVYTRTYGYCGQGTQVTVSS”, the “polyreactivity (PSR sort gate)” value was “high polyreactivity”. With “QVQLVESGGGLVQAGGSLRLSCSASGSIFVRNFMGGYRQSPGKERELVAGISWNGGSTFYADSVKGRFTISRDNAKNTVYLQMNSLKPEDTAVYYCAARGRHSVYYSFPYYYWGQGTQVTVSS” the “polyreactivity (PSR sort gate)” value was “low polyreactivity”. For “QVQLVESGGGLVQAGGSLRLSCSASGSIFYYKAMGWYRQAPGKERELVAAISYRGTSTYYADSVKGRFTISRDNAKNTVSLQMNSLKPEDTAVYYCAAPALYTSRRYYYWGQGNQVTVSS”, the “polyreactivity (PSR sort gate)” value was “high polyreactivity”. With “QVQLVESGGGLVQAGGSLRLSCSASGSIYSYYTMGSYIQAPGKERELVAAITGSGGRTYYADSVKGRFTISRDNAKNTVYLQMNSLKQEDTAVYYCNADRHYVPYYSRPRYIPYDYWGQGTQVTVSS” the “polyreactivity (PSR sort gate)” value was “high polyreactivity”. For “QVQLVESGGGLVQAGGSLRLSCSASGSTFFPYAMGWYRQAPGKERELVAAITSGGNTNYADSVKGRFTISRDNAKNTVYLQMNSLKPEDTAVYYCAADYLWHYRKYDYWGQGTQVTVSS”, the “polyreactivity (PSR sort gate)” value was “low polyreactivity”. With “QVQLVESGGGLVQAGGSLRLSCSASGSTFPPNAMGWYRQAPGKERELVAVISYSDGSTYYADSVKGRFTISRDNAKNTVYLQMNSLKPEDTAVYYCAAYSGYGGVSMYYWGQGTQVTVSS” the “polyreactivity (PSR sort gate)” value was “low polyreactivity”. In the case of “QVQLVESGGGLVQAGGSLRLSCSASGSTFRGYAMGWYRQAPGKDRELVAAISWSGGSTYYADSVKGRFTISRDHAKNTVYLQMNSLKPVDTAVYYCNAVGYLDFEWGQGTQVTVSS”, the “polyreactivity (PSR sort gate)” value was “low polyreactivity”. For “QVQLVESGGGLVQAGGSLRLSCSASGSTFSENAMGWYRQAPGKERELVAAISWGGGSTYYADSVKGRFTISRDKAKNTVYLQMNSLKPEDTSVYYCNADVFDDYCDFESDDWGQGTQVTVSS”, the “polyreactivity (PSR sort gate)” value was “low polyreactivity”. For “QVQLVESGGGLVQAGGSLRLSCSASGSTFYVYAMGWYRQAPGKERELVAAITDSGGSTYYADSVKGRFTISRDNAKNTVYLQMNILKPEDTAVYYCAREYTYRYHYYYWGQGTQVTVSS”, the “polyreactivity (PSR sort gate)” value was “low polyreactivity”. With “QVQLVESGGGLVQAGGSLRLSCSASGYIFSKYGMGWYRQAPGKEREFVAAISIRGGNTYYADSVKGRFTISRDNAKNTVYLQMTSLKPEDTAVYYCNALSYGRYLNYRGGMDYWGQGTQVTVSS” the “polyreactivity (PSR sort gate)” value was “high polyreactivity”. In the case of “QVQLVESGGGLVQAGGSLRLSCSDSGSTFPYHAMGWYRPAPGKERELVAAIDSSDGITYYADSVKGRFTISRDNAKNTVYLQMNRLKPEDTAVYYCAAEDYEAGYDFWGQGTQVTVSS”, the “polyreactivity (PSR sort gate)” value was “high polyreactivity”. With “QVQLVESGGGLVQAGGSLRLSCTASGGIFRYYAMGWYRPAPGKERELVAGISRSGGSTHYADSVKGRFTISRDNAKNTVYLQMNSLKREDTAVYYCAADTYFTKYDYWGQGTQVTVSS” the “polyreactivity (PSR sort gate)” value was “high polyreactivity”. For “QVQLVESGGGLVQAGGSLRLSCVASGLTFYYYAMGWYRQAPGKERELVAAISSGGSTYYADSVKGRFTISRDNAKNTVYLQMNSLKPEDTAVYYCNTYRYRVWGLMYWGQGTQVTLSS”, the “polyreactivity (PSR sort gate)” value was “high polyreactivity”. For “QVQLVESGGGLVQAGGSLRLSCVASGRIFWANAIGWYRQAPGKERELVAAITYSGGTTYYADSVKGRFTISRDNAKNTVYLQMNSLKPEATAVYYCAKVGRGNNYWGQGTQVTVSS”, the “polyreactivity (PSR sort gate)” value was “high polyreactivity”. For “QVQLVESGGGLVQAGGSLRLSCVASGRTFSRYAMGWYRPAPGKERELVAAISRRGGSTFYADSVKGRFTISRDNAKNTVYLQMNSLKPEDTAVYYCAAGYITWGSGNWVVTPYDYWGQGTQVTVSS”, the “polyreactivity (PSR sort gate)” value was “high polyreactivity”. For “QVQLVESGGGLVQAGGSLRLSCYASGFIFHSYAMGWYRQAPGKERELVASISRGGGSTYYADSVKGRFTISRDNAKNTVYLQKNSLKPEDTPVYYCNAVWRSNSRFDYWGQCTQVTVSS”, the “polyreactivity (PSR sort gate)” value was “high polyreactivity”. In the case of “QVQLVESGGGLVQAGGSLRLSFAASARTFYIYPMGWYRQAPGKERELVAAITYGGGRTFYADSVKGRFTISRDNANNTVYLQMNSLKPEDTAVYYCAATVRGKRSTYDYWGQGTQVTVSS”, the “polyreactivity (PSR sort gate)” value was “high polyreactivity”. For “QVQLVESGGGLVQAGGSLRLSFAASGFIFYRYVMGWYRQAPGKERELVAAITWSGGSTYYADSVKGRFTISRDNAKNTVYLQMNSLKPEDTAVYYCNAESNLYFRYDYWGQGTQVTVSS”, the “polyreactivity (PSR sort gate)” value was “low polyreactivity”. With “QVQLVESGGGLVQAGGSLRLSFAASGFNFEWYTMGWYRQAPGKEMELVADISGDGSTYYAVSVKGRFTISRDNAKNTVYLQMNSLKPEDTAVYYCAASFWGIAMGYWGQGTQVTVSS” the “polyreactivity (PSR sort gate)” value was “high polyreactivity”. With “QVQLVESGGGLVQAGGSLRLSFAASGFTFYRYAMGWYRQAPGKERELVAAISGDGGSTYYAASVKGRFTISRDNAKNTVYLQMNSLKPEDTAVYYCNKYFWQYLYGYWGQGTQVTVSS” the “polyreactivity (PSR sort gate)” value was “high polyreactivity”.
